To fix the notation:
B1: CREB-regulated transcription coactivator 2 (Mus musculus), Q3U182 (parent)
chain: MATSGANGPGSATASASNPRKFSEKIALQKQRQAEETAAFEEVMMDIGSTRLQAQKLRLAYTRSSHYGGSLPNVNQIGCGLAEFQSPLHSPLDSSRSTRHHGLVERVQRDARRMVSPLRRYPRHIDSSPYSPAYLSPPPESGWRRMMPWGNLPAEKGQLFRLPSALNRTSSDSALHTSVMNPNPQDTYPGPTPPSVLPSRRGGGFLDGEMDAKVPAIEENVVDDKHLLKPWDAKKLSSSSSRPRSCEVPGINIFPSPDQPANVPVLPPAMNTGGSLPDLTNLHFPPPLPTPLDPEETVYPSLSGGNSTTNLTHTMTHLGISGGLGLGPSYDVPGLHSPLSHPSLQSSLSNPNLQASLSSPQPQLQGSHSHPSLPASSLAHHALPTTSLGHPSLSAPALSSSSSSSSTSSPVLSAPPYPASTPGASPRHRRVPLSPLSLPAGPADARRSQQQLPKQFSPTMSPTLSSITQGVPLDTSKLPTDQRLPPYPYSPPSLVIPTHPPTPKSLQQLPSQACLVQPSGGQPPGRQPHYGALYPPGSSGHGQQPYHRPINDFSLGNLEQFNMESPSTSLVLDPPAFSEGPGFLGSEGSMSGPQDPHVLNHQNLTHCSRHGSGPNIILTGDSSPGFSKEIAAALAGVPGFEVSASGLELGLGLEDELRMEPLGLEGLTMLSDPCALLPDPAVEDSFRSDRLQ

This is an account of results in IntAct's records for PubMed 22495310.

This assay covers variants of B1. To be noted: with pp2ba_mouse Ppp3ca.
For the variant P614G;I616A;L618A;T619A, the “effect of a mutation on the interaction” value is given as “decreasing interaction strength”.
